The results in this text go back to the DeepSol protein solubility set.

This data set is described as follows: soluble on expression in E. coli; label from the status in PepcDB or PDB records.
With “MSLSDNVVTSKVGNVTEKELSKELRQQYGESTLYQMMLSKALLDKYKVSDEEAKKKVEEAKDKMGENFKSTLEQLGLKNEDELKEKMKPEIAFEKAIKATVTDKDVKNNYKPEMKVSHILVKDEKTAKEIKEKVNNGEDFAALANQYSEDTGSKEQGGEISGFAPGQTVKEFEEAAYKLDAGQVSDPVKTTYGYHIIKVTDKKELKPFDEVKDKIRKDIEQQRLQDTTGKWKQQVVNDLLKDADIKVNNKEFKDTFKFLEKEGHHHHHH”, the “soluble on expression in E. coli” value is “soluble”.
With “MAHHHHHHMGGCLISPSAEMQLEENTTSPFGHRRPIFGLFGAGEVTGGVHGGNRLGGNSLLECVVFGRIAGDRAATILQNNDTYLWGEKWSQLKLRNVMEDENGFMWLHFTFPSSFQVSGLEALQGVVLRSVSGDKSVEVYTPYTLPDDEGVVGIALSPWLTGNGVHWLRTLQPGDTVEMKAAERVERNYMNMLKAPHKVVIATSRGIAPMMQILRATMERPEKDATIHLIYIADRASSIPYREKLKALAEASPERFRCTFVLQHPQPGWSGAVNYLDEIAASVFPDPAVVIFLCGASEETRSIKSSLLDMGHDVATIATVE”, the “soluble on expression in E. coli” value is “not soluble”.
The result for “MVTNVEGDMNYCCKVDLKPWHFWNKKGYKSFDVEGNPVEVYWDFRSAKFTSSPEPSSDFYVALVSEEEVVLLVGDYKKKAFKRTKSRPALVEAALFYKKENVFGKKCFTTRAKFYDRKKEHEIIVESSTSGPKEPEMWISIDGIVLIQVKNLQWKFRGNQTVLVDKQPVQVFWDVYDWLFSMPGTGHGLFIFKPGTTEDSDMEGSGHGGGGGGESDTSTGSRYYSTKSSNPWPPEFCLFLHAYKLE” reads “soluble”; that for “GVDGCGSVTLAYDGFNVNLLHSKVSDSLIPSEFQGEQGSVLVDMIATGRGVERILRGEEKETLTLPQTENHMFYEAEAFAKQLKLGVIDEQMKQRSLTVAKVLTEVRKQTGVVFPADQ”, “not soluble”; that for “VKFLTVNDDILSMPQARNFCASAGGYLADDLGDDKNNFYSSIAANTQFWIGLFKNSDGQFYWDRGQGINPDLLNQPITYWANGEPSNDPTRQCVYFDGRSGDKSKVWTTDTCATPRPFICQKHRYDSDHKPNTIGDA”, “soluble”.
The result for “MSLKYDLKYLSVPLPEEIQRVKEFGDFASADIAIDFWLTKELPQALKERLIIEKDVIKMMRMNEYPHSFAKADQMMRDTFQDYQTEELIRLKETGLVDWVYIDGEPYFQLRFLANLIKTNAAYVARLREAESNQLEILRKKELKENIEQMQKNGGRKVRTTIKATIQVKKEFERPGERVRVHLPLPKACQQQSEIEILATSPEATYIAAEDAPQRTLCFETILKENQTFTVEYCYVNRMVYQQLEENNVDKMQPSFDLEEQLPHIRFTPYLRNLADEIVGDESNPLKKARLIYDFVTTKIHYSFMREYFTISNISEYAATNLKGDCGVQAILFITLCRIAGIPAKWQSGLYVSTHYTGCHDWAQFYIKPYGWLFADLSFGGGAYRDGDRQRWNHYFGNLDVFRMVANSEIQADFQPAKMQLRADPIDNQRGEFEYENEGLPYACLIVSQERLSMEELPFDEGGSHHHHHH” reads “soluble”; that for “MYQLSRTQILPVPLTVAWDFFSDPRNLAAITPPDMGFVITSPVPERTHAGMVVTYAVSPFGGLRLPWVTEITHCAEPSLFVDEQRFGPYRFWHHQHHFLEVSGGVEMRDIVHYILPFGIIGRLSAPVVAKRLKAIFDYRRDTLAVRFAALSRGALEHHHHHH”, “not soluble”; that for “MSLREIHVDTLTDAVAKLCIDACHRLPDNLVESFHKAAEKEVSPLGKSVLMKLIDNDRIARENDVSYCHDTGLAIVFVEVGQDVHIVGGSYEDAIQAGVRKGYAEGYMRKSVVSDPLLRVNSNDNTPAVVHTEIVPGDNIEVTVVPKGGGSENWSTMKFLLPGEGAEGVKKFVLSAIEAAGGAACPPLTVGVGIGGSFDKVTAIAKKAILRDIGVHHKEPHVAKLEAELLDAINKTGIGPQGYGGVNTALWVSVETYACHITALPVAVNIQCHAGRRATAVIEGHHHHHH”, “soluble”.
As for “MSLDVSDDADRLQTLLYSSYSADVVRQLERPLLDDGVPLMRMAASAVARVTLSLLDDEDLDVEDARVTVLAGAGDNGGDGLYAGAELAREGAQVTAVAVGRSLHEDAFREFVRAGGRVLVLDPAADIPGCTSGFSAGEAGERLQAAVECARGAHVVLDAMTGIGVAGALRGVAGTLASSLGMDGVLPDKPALPNNDPSADLPLVVAVDAPSGVGVDDGSLPGPYIPADVTVTFGAMKPCAMVPPASYACGRITLVDFGFDVDDAVPFAEMTDGDFVADSVRLPSLADGKYSRGVVGLVTGSARYPGAAVLSARAAACANVGMVRYLGPQRAQDMILAVLPEAVLGKGRVQSWVVGSGVPAEGDVASGDDMQRATIAALLDHYALEDGDGSRNERAEGMPPIVVDAGALDLLPCHVVPQVVITPHAGELAALLNRLDADMADVVSRQWVEARPLRAALRAHELTGATVLLKGAVTIVVGADGDGNTRIILSGRAPAWMATAGSGDVLAGVLGALLAQQDDMLSDDPALVPEVAAAAAYMHGLAGAMASGSEQRGWHRPHLYGHAGKTPASAIGHPIVAGDVVAAVPRAFGELLREGHHHHHH”, the “soluble on expression in E. coli” value is “soluble”.
As for “MSLRWLSLNTATVRKQGDLVAIIDACAKHGIRAIDPWRDQVASVGLDRAARAVRDAGLELSGYCRGGMFTSDASRRGEVRDDNRRCVDEAKALGAPCIVLVVGGLPQYSRPGSEPSKDIAAARGQVEEALADMLDYARQAGLPLAIEPLHPAYAADRACVNTTKQALDICDRLDPGRTGMLGVALDVYHIWWDPELMSQIARAGRDRLLAFHVCDWLVPTRDILNDRGMMGDGVIDIKSVRKAVEAQGFAGYSEIEIFSNDWWAKPMDEVLRTCITRHRTVVEGHHHHHH”, the entry is “not soluble”.
As for “MAFQLEMVTRETVVIRLFGELDHHAVEQIRAKISTAIFQGAVTTIIWNFERLSFMDSSGVGLVLGRMRELEAVAGRTILLNPSPTVRKVFQFSGLGPWMMDATEEEAIDRVRGIVNG”, the entry is “soluble”.
As for “MSEKEIWEKVLEIAQEKLSAVSYSTFLKDTELYTIKDGEAIVLSSIPFNANWLNQQYAEIIQAILFDVVGYEVKPHFITTEELANYSNNETATPKETTKPSTETTEDNHVLGREQFNAHNTFDTFVIGPGNRFPHAASLAVAEAPAKAYNPLFIYGGVGLGKTHLMHAIGHHVLDNNPDAKVIYTSSEKFTNEFIKSIRDNEGEAFRERYRNIDVLLIDDIQFIQNKVQTQEEFFYTFNELHQNNKQIVISSDRPPKEIAQLEDRLRSRFEWGLIVDITPPDYETRMAILQKKIEEEKLDIPPEALNYIANQIQSNIRELEGALTRLLAYSQLLGKPITTELTAEALKDIIQAPKSKKITIQDIQKIVGQYYNVRIEDFSAKKRTKSIAYPRQIAMYLSRELTDFSLPKIGEEFGGRDHTTVIHAHEKISKDLKEDPIFKQEVENLEKEIRNVLEHHHHHH”, the entry is “soluble”.
As for “MAHHHHHHMSIDAGLCDRYVVFLDIDGVLLPVPKFTFGGGNLSGRCAQTLKRLIAALGGRDKVTLVLSSTWRNHPVMVDRLNTFMQKEAGDGIPVVSERTPNGTVLMSSVTYYADDPSEQRLVRDRVDEVYRWLHTHITDHPEAIGGRWFAIDDMQLDVDERMRGHFLHTQTDVGITEADVDTACAMIASHPSPTEAYAAAVAALADPALKAEEVEIQRVLQSRLEAQLAATTAELTEAQEKMAALSAEKKDLIKELAEKQRSIDDMRYRLAVYDFSKRYPCLATAVELAGTKSGAERRAMDAAIRTFVTLLMDRKELQKKMRSEAKKVKQAS”, the “soluble on expression in E. coli” value is on record as “not soluble”.
“MDNKIVYVVSDSVGETADLVVRAAMGQFPFAPDIRRVPYVEDTGTLKEVISIAKSNQALICFTLVKPDMRQYLVTEAAKEGVEAYDIIGPLIDQIEEITGQVPRYEPGVVRRLDEEYFKKIEAIEFAVKYDDGRDARGILKADIVLIGISRTSKTPLSQYLAHNKRLKVANVPLVPEVDPPEELYQVAKEKCFGLKITPEKLNHIRKERLKSLGLSDGATYANINRIKEEIDHFENVVSKINCQVIDVSNKAIEETANIIVNAVQNQKMFMAGDPLEHHHHHH”: the “soluble on expression in E. coli” value is on record as “soluble”.
In the case of “MMSIFRKLMPREDRFFDMFSKHSETVIKAAAALDQLLSGIDVEKNCDLIVALENQADDITREVLLAVRRSFITPFDRGDIKDLIQSMDDAIDMMHKTVKTIRLFEQSEFDPLMKEMGHEIVRAAGLIAEAIPLLNKVGANAQRLSAIAEEVTRVEGRSDDLHDQGLKDLFRRHGANGNAMAYMIGSEIYGELEKVVDRFEDVANEISGIVIENVLEHHHHHH”, the “soluble on expression in E. coli” value is recorded as “soluble”.
In the case of “MNSVLSNIEKLDTYILRRNEYVAESKDEPNKLNTSRKLEVTTKKNQSNNKKRPPPINKARKSLPSIFRRAEENKDSAQIITPTGSKIIGSPLYKRSKSDSFFDHAFNFDKNLGKGSFGEVVAATCRSTSKKFAIKKIPFSKLSKDQYREAYGHMNIPCHPNIVRFHQAWIDKQILHIQLEMCDKSLAAYCHGIDWLEDKELWNVFLDILQGLGHLHNNFMLHNDIKPDNIFMTKNKVCKLGDFGLISDMRSEPINNSSNKHYQSEGDGKYCSKEAINGTLSIFSDIFSFGISILEVGTNIHLPSYGTGWEPIRKWEIPEEILEPMSDELRELVKQMMDKAPTRRPTCSELMKNHVVKEKLRIRKQEVEHIPSESQFQPISYLTTESPLGSRESSCSSIDFLDHFENAEKKTPFVSKLNFDLEDDEDEYEVFSPPRTPVKKSRYQQTMPEVSPPRKIQKLFQRKNLFDE”, the “soluble on expression in E. coli” value was “not soluble”.
As for “MLDIVLYEPEIPQNTGNIIRLCANTGFRLHLIEPLGFTWDDKRLRRSGLDYHEFAEIKRHKTFEAFLESEKPKRLFALTTKGCPAHSQVKFKLGDYLMFGPETRGIPMSILNEMPMEQKIRIPMTANSRSMNLSNSVAVTVYEAWRQLGYKGAVNLPEVKLEHHHHHH”, the entry is “soluble”.
The result for “MGSDKIHHHHHHMVILHIIAGLEKGGAESTLKRLCLNGTEHEHVVVSLSTLGSVGLELQKAGVKVYCLDIRPSITSVAAIFRLYKIIKLRKPSVVQTWMYHADLVGGIVSRVAGVKKIYWGVHHTYLIKGQSKRVTIFISRINSVLSHFIPTKIVYCANSARVAQEKIGYNKKSGIVIFNGYDTSKFKRDLKLRSVYREKLGLKETDFVIGHVGRYDSLKDYPNLINAIRKVKYKVGGLKVILVGAGLSKDNRELLNVISESTLISKFHLLGPSDDIPGIMNAIDVFVLSSSSEAFPNVLNEAMACGTPCVSTDVGDASAIVGMTGWLSAAGDSSALAEKIYAAYKEFSENKANWEERQYSCRERIVTNFSSQSMVSNYTLLWQS” reads “not soluble”; that for “MAKYNEKKEKKRIAKERIDILFSLAERVFPYSPELAKRYVELALLVQQKAKVKIPRKWKRRYCKKCHAFLVPGINARVRLRQKRMPHIVVKCLECGHIMRYPYIKEIKKRRKEKMEYGGLVPR”, “soluble”.
The result for “SLPLTMTVLILLLLPTGQAAPKDGVTRPDSEVQHQLLPNPFQPGQEQLGLLQSYLKGLGRTEVQLEHLSREQVLLYLFALHDYDQSGQLDGLELLSMLTAALAPGAANSPTTNPVILIVDKVLETQDLNGDGLMTPAELINFPGVALRHVEPGEPLAPSPQEPQAVGRQSLLAKSPLRQETQEAPGPREEAKGQVEARRESLDPVQEPGGQAEADGDVPGPRGEAEGQAEAKGDAPGPRGEAGGQAEAEGDAPGPRGEAGGQAEARENGEEAKELPGETLESKNTQNDFEVHIVQVENDEI” reads “soluble”; that for “MAHHHHHHMHVSSAAYTRAYEWQRALNSCTGDFSSSLARCLPLRALCRRPNNVPRTLTHTSKHPHPLLLSHPRLPLSHAARTRAPPPSRCSRSTLMSVPYEEKAFPPL”, “not soluble”; that for “MNIVALHVVLYHPEIPANTGNIARTCAATNTTLHLIRPLGFSTDDKMLKRAGLDYWEFVNVVYHDSLEELFEAYKKGKFFFITKFGQQPHTSFDYTDLDEDYFFVFGRETSGLPKDLIQNNMDRCLRLPMTEHVRSLNLSNTAAILVYEALRQQNYRDLK”, “soluble”.
